Molecular target: HLA-A2 (HLA-A*02:01) on cells (T2 cells; K562A2 cells) (human)
Test: T2 peptide-binding assay: T2 cells with peptide at 100 µg/mL overnight, surface HLA-A2 by flow cytometry (T2 only: 3.34E+05)
Settings: remark: other sources report otherwise

Mean Fluorescence Intensity (surface HLA-A2): 305000
B1: KKLC1 p52-60 peptide (HLA-A1 restricted control), Q5H943 52-60 (peptide, UniProt Q5H943 52-60, looked up)
peptide: NTDNNLAVY

— patent US20240239864A1
